Experimental data: patent US6642040B2, “Human cGMP-stimulated cyclic nucleotide phosphodiesterase” (The Board of Regents of the University of Washington, priority 1991, dated 2003)

Tests used:
cAMP hydrolysis = assay: cGS-PDE activity of PPD-S49 cells transfected with cGS-PDE cDNA; type: biochemical, bovine; details: zinc-treated PPD S49 cells, pZEM 228 vector
Description: A putative phosphodiesterase-deficient (PPD) strain of S49 cells [Bourne et al., J. Cell. Physiol., 85:611-620 (1975)] was transiently transfected with the cGS-PDE cDNA using the DEAE-dextran method. The cGS-PDE cDNA was ligated into the unique BamHI cloning site in a mammalian expression vector, designated pZEM 228, following a zinc-inducible metallothionine promoter and prior to an SV40 transcription termination sequence. The DNA was purified from large-scale plasmid preparations using Qiagen pack-500 columns as directed by the manufacturer. PPD-S49 cells were cultured in DMEM containing 10% heat-inactivated horse serum, 50 μg/ml penicillin G and 50 μg/ml streptomycin sulfate at 37° C. in a water-saturated 7% CO2 atmosphere. Prior to transfections, confluent 100 mm dishes of cells were replated at one-fifth of the original density and incubated for 24-36 h. In a typical transfection experiment, PPD-S49 cells (50-80% confluent) were washed with Tris-buffered-saline and approximately 2×10^7 cells were transfected with […] of DNA mixed with 400 μg of DEAE-dextran in one ml of TBS. […]
cGS PDE activity was determined by a previously described method using [^3H]cAMP as the substrate as in Martins et al., J. Biol. Chem., 257:1973-1979 (1982). […] The Bradford assay [Bradford, Anal. Biochem., 72:248-254 (1976)] was used to quantitate protein using BSA as the standard.

cGS-PDE activity = cGS-PDE activity of membrane and supernatant fractions of transfected COS-7 cells; type: biochemical, bovine; details: most of the activity in supernatant fractions
Description: Transient expression of the CGS-PDE cDNA in COS-7 cells was accomplished as in Example I. A 4.2 kb fragment of p3CGS-5 was isolated using HindIII and NotI and was inserted into plasmid pCDM8, which had been digested with the same enzymes. The character of products produced in COS-7 cells transformed with the p3CGS-5/pCDM8 construct is discussed in Example V, infra.
For transient expression in COS-7 cells, a 3.8 kb fragment of pBBCGSPDE-7 was isolated using HindIII and NotI and inserted into plasmid pCDM8 which had been cut with HindIII and NotI restriction endonucleases. The recombinant pBBCGSPDE-7/CDM8 construct was used to transiently transfect COS-7 cells. The properties of the pBBCGSPDE-7/CDM8 construct and the p3CGS-5/CDM8 construct prepared in Example IV products were subsequently compared. Membrane and supernatant fractions were prepared from extracts of transfected COS-7 cells and assayed for cGS-PDE activity. […] However, a 10-fold greater percentage of total cGS-PDE activity was detected in membranes from COS-7 cell extracts transfected with the pBBCGSPDE-7/CDM8 construct than in membranes prepared from p3CGS-5/CDM8-transfected COS-7 cells.

cAMP and cGMP hydrolysis [1] = assay: CaM-dependent PDE activity of homogenates of COS-7 cells transfected with 63 kDa CaM-PDE cDNA; type: biochemical, bovine; details: COS-7 cell homogenates
Protocol: COS cells were scraped from the plates and homogenized in a buffer containing 40 mM Tris-HCl (pH=7.5), 5 mM EDTA, 15 mM benzamidine, 15 mM beta-mercaptoethanol, 1 μg per ml pepstatin A and 1 μg per ml peupeptin using a Dounce homogenizer (1 ml per 100 mm plate). Homogenates were assayed for PDE activity according to the procedures of Hanson et al., Proc. Nat'l. Acad. Sci. U.S.A., 79:2788-2792 (1982), using [^3H]cGMP as the substrate. Reactions were carried out at 300 for 10 minutes in a buffer containing 20 mM Tris-HCl (pH=7.5), 20 mM imidazole (pH=7.5), 3 mM MgCl2, 15 mM Mg acetate, 0.2 mg per ml BSA and 1 μM ^3H-cAMP with either 2 mM EGTA or 0.2 mM CaCl2 and 4 μg per ml CaM. Assays were stopped by incubating the tubes in a 900 water bath for 1 minute. After cooling, 10 μl of 2.5 mg per ml snake venom was added to each assay and incubated at 370 for 5 minutes. […] Samples were counted for 1 minute using a Packard Model 1600TR scintillation counter. Specific cyclic nucleotide hydrolytic activity was expressed as picomoles cAMP or cGMP hydrolyzed per minute per mg protein. […]
COS-7 cells were transfected with the p12.3.a/CDM8 construct or mock transfected with the CDM8 vector alone using the DEAE-dextran method as described in Example 1. […] CaM-dependent and independent activities were determined as in Example 1.

calmodulin = calmodulin (Homo sapiens, UniProt P0DP23); details: cited from earlier work
cAMP and cGMP hydrolysis [2] = assay: PDE activity of homogenates of COS-7 cells transfected with 61 kDa CaM-PDE cDNA; type: biochemical, bovine; details: COS-7 cell extracts

B1: cGS-PDE cDNA: expression product of bovine adrenal cortex cGS-PDE cDNA (SEQ ID NO: 39) (protein)
chain: MRRQPAASRDLFAQEPVPPGSGDGALQDALLSLGSVIDVAGLQQAVKEALSAVLPKVETVYTYLLDGESRLVCEEPPHELPQEGKVREAVISRKRLGCNGLGPSDLPGKPLARLVAPLAPDTQVLVIPLVDKEAGAVAAVILVHCGQLSDNEEWSLQAVEKHTLVALKRVQALQQRESSVAPEATQNPPEEAAGDQKGGVAYTNQDRKILQLCGELYDLDASSLQLKVLQYLQQETQASRCCLLLVSEDNLQLSCKVIGDKVLEEEISFPLTTGRLGQVVEDKKSIQLKDLTSEDMQQLQSMLGCEVQAMLCVPVISRATDQVVALACAFNKLGGDLFTDQDEHVIQHCFHYTSTVLTSTLAFQKEQKLKCECQALLQVAKNLFTHLDDVSVLLQEIITEARNLSNAEICSVFLLDQNELVAKVFDGGVVEDESYEIRIPADQGIAGHVATTGQILNIPDAYAHPLFYRGVDDSTGFRTRNILCFPIKNENQEVIGVAELVNKINGPWFSKFDEDLATAFSIYCGISIAHSLLYKKVNEAQYRSHLANEMMMYHMKVSDDEYTKLLHDGIQPVAAIDSNFASFTYTPRSLPEDDTSMAILSMLQDMNFINNYKIDCPTLARFCLMVKKGYRDPPYHNWMHAFSVSHFCYLLYKNLELTNYLEDMEIFALFISCMCHDLDHRGTNNSFQVASKSVLAALYSSEGSVMERHHFAQAIAILNTHGCNIFDHFSRKDYQRMLDLMRDIILATDLAHHLRIFKDLQKMAEVGYDRTNKQHHSLLLCLLMTSCDLSDQTKGWKTTRKIAELIYKEFFSQGDLEKAMGNRPMEMMDREKAYIPELQISFMEHIAMPIYKLLQDLFPKAAELYERVASNREHWTKVSHKFTIRGLPSNNSLDFLDEEYEVPDLDGARAPINGCCSLDAE
For B1, the “cGMP-enhanced cAMP phosphodiesterase activity” value (cAMP hydrolysis) was “expressed cGMP-enhanced CAMP phosphodiesterase activity” and the “cGS-PDE activity in COS-7 cell extracts” value (cGS-PDE activity) was “produced cGS-PDE activities”.

B2: p12.3.a: expression product of bovine brain 63 kDa CaM-PDE cDNA clone (SEQ ID NO: 27) (protein)
chain: MELSPRSPPEMLESDCPSPLELKSAPSKKMWIKLRSLLRYMVKQLENGEVNIEELKKNLEYTASLLEAVYIDETRQILDTEDELQELRSDAVPSEVRDWLASTFTQQTRAKGPSEEKPKFRSIVHAVQAGIFVERMFRRTYTSVGPTYSTAVLNCLKNVDLWCFDVFSLNRAADDHALRTIVFELLTRHNLISRFKIPTVFLMTFLDALETGYGKYKNPYHNQIHAADVTQTVHCFLLRTGMVHCLSEIEVLAIIFAAAIHDYEHTGTTNSFHIQTKSECAILYNDRSVLENHHISSVFRMMQDDEMNIFINLTKDEFVELRALVIEMVLATDMSCHFQQVKSMKTALQQLERIDKSKALSLLLHAADISHPTKQWSVHSRWTKALMEEFFRQGDKEAELGLPFSPLCDRTSTLVAQSQIGFIDFIVEPTFSVLTDVAEKSVQPTGDDDSKSKNQPSFQWRQPSLDVEVGDPNPDVVSFRSTWTKYIQENKQKWKERAASGITNQMSIDELSPCEEEAPASPAEDEHNQNGNLD
In the case of B2, the “increase in CaM-stimulated cAMP phosphodiesterase activity over basal levels” value (cAMP and cGMP hydrolysis [1]) is reported as 15 fold and the “increase in CaM-stimulated cGMP phosphodiesterase activity over basal levels” value (cAMP and cGMP hydrolysis [1]) is reported as 12 fold.

B3: 59 kDa isozyme: 59 kDa CaM-PDE isozyme isolated from bovine heart (protein, UniProt P14100 1-530, looked up)
Dual specificity …: MGSTATETEELENTTFKYLIGEQTEKMWQRLKGILRCLVKQLEKGDVNVIDLKKNIEYAASVLEAVYIDETRRLLDTDDELSDIQSDSVPSEVRDWLASTFTRKMGMMKKKSEEKPRFRSIVHVVQAGIFVERMYRKSYHMVGLAYPEAVIVTLKDVDKWSFDVFALNEASGEHSLKFMIYELFTRYDLINRFKIPVSCLIAFAEALEVGYSKYKNPYHNLIHAADVTQTVHYIMLHTGIMHWLTELEILAMVFAAAIHDYEHTGTTNNFHIQTRSDVAILYNDRSVLENHHVSAAYRLMQEEEMNVLINLSKDDWRDLRNLVIEMVLSTDMSGHFQQIKNIRNSLQQPEGLDKAKTMSLILHAADISHPAKSWKLHHRWTMALMEEFFLQGDKEAELGLPFSPLCDRKSTMVAQSQIGFIDFIVEPTFSLLTDSTEKIIIPLIEEDSKTKTPSYGASRRSNMKGTTNDGTYSPDYSLASVDLKSFKNSLVDIIQQNKERWKELAAQGEPDPHKNSDLVNAEEKHAETHS
For B3, the “affinity for calmodulin relative to the 61 kDa brain isozyme” value (calmodulin) is given as 10-20 fold.

B4: pCAM-40: expression product of plasmid pCAM-40, full length bovine brain 61 kDa CaM-PDE (SEQ ID NO: 6) (protein)
chain: MGSTATETEELENTTFKYLIGEQTEKMWQRLKGILRCLVKQLEKGDVNVIDLKKNIEYAASVLEAVYIDETRRLLDTDDELSDIQSDSVPSEVRDWLASTFTRKMGMMKKKSEEKPRFRSIVHVVQAGIFVERMYRKSYHMVGLAYPEAVIVTLKDVDKWSFDVFALNEASGEHSLKFMIYELFTRYDLINRFKIPVSCLIAFAEALEVGYSKYKNPYHNLIHAADVTQTVHYIMLHTGIMHWLTELEILAMVFAAAIHDYEHTGTTNNFHIQTRSDVAILYNDRSVLENHHVSAAYRLMQEEEMNVLINLSKDDWRDLRNLVIEMVLSTDMSGHFQQIKNIRNSLQQPEGLDKAKTMSLILHAADISHPAKSWKLHHRWTMALMEEFFLQGDKEAELGLPFSPLCDRKSTMVAQSQIGFIDFIVEPTFSLLTDSTEKIIIPLIEEDSKTKTPSYGASRRSNMKGTTNDGTYSPDYSLASVDLKSFKNSLVDIIQQNKERWKELAAQGEPDPHKNSDLVNAEEKHAETHS
In the case of B4, the “cAMP and cGMP hydrolytic activities compared to mock transfected cells” value (cAMP and cGMP hydrolysis [2]; in the presence of EGTA) is reported as “significantly greater” and the “effect of calcium and CaM on cAMP and cGMP hydrolysis” value (cAMP and cGMP hydrolysis [2]; in the presence of calcium and CaM) is reported as “stimulation”.
